The values that follow come from article PMC5615231.

The assay concerns the target recombinant Aβ42 peptide (UniProt P05067).

extracellular chaperone clusterin, sequence (P10909 23-227): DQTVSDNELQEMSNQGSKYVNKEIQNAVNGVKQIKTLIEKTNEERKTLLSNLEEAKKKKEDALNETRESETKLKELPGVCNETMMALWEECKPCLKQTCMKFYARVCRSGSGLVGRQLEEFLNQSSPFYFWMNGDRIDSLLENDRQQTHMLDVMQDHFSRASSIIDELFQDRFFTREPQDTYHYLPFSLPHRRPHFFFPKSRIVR
extracellular chaperone clusterin, sequence (P10909 228-449): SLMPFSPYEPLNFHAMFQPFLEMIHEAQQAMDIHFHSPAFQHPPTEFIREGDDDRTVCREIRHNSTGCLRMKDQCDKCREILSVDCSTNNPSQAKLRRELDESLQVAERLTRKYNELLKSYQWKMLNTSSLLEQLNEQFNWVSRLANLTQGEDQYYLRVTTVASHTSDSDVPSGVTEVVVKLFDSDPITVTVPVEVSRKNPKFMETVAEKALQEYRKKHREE

In the case of “extracellular chaperone clusterin (from UniProt P10909 23-227; P10909 228-449) (natural protein)”, the concentration of clusterin required to reduce by half the Ca^2+ influx into lipid vesicles induced by Aβ42 oligomers (t2 aliquot; dilution series) is 0.1 nM.
